From article PMC9096947 come the findings set out here.

In this data set the test system is CodY (Streptococcus agalactiae (Group B Streptococcus) BM110). The data set can be described thus: EMSA. The following applies: EMSA as in Barbieri et al. 2015 (buffer, salt, pH, temperature not given); 50 nM FAM probe; 5% non-denaturing Tris-glycine polyacrylamide gel; 10 mM each ILV …. A general note: A gel shift assay detects complexes by their altered migration in electrophoresis.

The Kd is the concentration at which binding is half-saturated.

“And” between values parts separate entries of the source, which are not always exact repeats. Equal entries are not always repeated.

Regarding livKp220 (livK regulatory region, WT), the Kd is 50 nM and 150 nM.
